Assay results as given in US11613587B2, “Combination therapy of T cell activating bispecific antigen binding molecules and PD-1 axis binding antagonists” (Hoffmann-La Roche Inc., priority 2014, dated 2023).

Legend:
[1] = tested on: erythrocytes (CD235a positive); test: Binding to erythrocytes (flow cytometry); design: species or system human
[2] = tested on: huFolR1-Fc; test: Epitope binning (SPR); type: binding, human; details: 500 nM huFolR1-Fc, 500 nM binder
Description: 500 nM huFolR1-Fc was then captured for 60 s, followed by 500 nM of the different binders for 30 s. The surface was regenerated with two injections of 10 mM glycine pH 2 for 30 s each.

[3] = tested on: HEK cells transiently transfected with cyno FolR1; test: Cross-reactivity to cyno FolR1 on transfected HEK cells (flow cytometry); type: binding, cynomolgus; details: IgG
Description: FIGS. 4A-B depict graphs summarizing cross-reactivity of FolR1 binders to cyFoLR1. Cross-reactivity of the FolR1 antibodies to cyno FolR1 was addressed on HEK cells transiently transfected with cyFolR1 by flow cytometry.
New FolR1 binders were generated via Phage Display using either a Fab library or a common light chain library using the CD3 light chain. The identified binders were converted into a human IgG1 format and binding to FolR1 high expressing HeLa cells was addressed. As reference molecule the human FolR1 binder Mov19 was included. […] In a next step the selected clones were tested for specificity to human FolR1 by excluding binding to the closely related human FolR2. HEK cells were transiently transfected with either human FolR1 or human FolR2 to address specificity. […] Therefore these clones were excluded from further characterization. In parallel cross-reactivity of the FolR1 clones to cyno FolR1 was addressed by performing binding studies to HEK cells transiently transfected with cyno FolR1. […] Subsequently three human FolR1 specific cyno cross-reactive binders were converted into TCB format and tested for induction of T cell killing and T cell activation. […] As reference molecule Mov19 FolR1 TCB was included in all studies. These FolR1 TCBs were then used to compare induction of internalization after binding to FolR1 on HeLa cells.

[4] = molecular target: T1, human FolR1 (Homo sapiens, UniProt P15328); test: SPR single injections of anti-FolR1 IgGs (Biacore T200); type: binding
T1 construct: the extracellular domain of the antigen linked to the hinge region of Fc-knob which is co-expressed with an Fc-hole molecule; made in house; host or cells: HEK293 EBNA
Description: The immobilization level was about 300-400 RU.

Row | Molecule | binding to erythrocytes [1] | binding of analyte in solution to huFolR1 captured on immobilized 16D5 TCB [2] | binding of analyte in solution to huFolR1 captured on immobilized 21A5 TCB [2] | binding of analyte in solution to huFolR1 captured on immobilized Mov19 IgG [2] | binding to cyno FolR1 [3] | dissociation from huFolR1 [4]
1 | Mov19: reference human FolR1 binder, control IgG (antibody, V domains shown) VH: QVQLQQSGAELVKPGASVKISCKASGYSFTGYFMNWVKQSHGKSLEWIGRIHPYDGDTFYNQNFKDKATLTVDKSSNTAHMELLSLTSEDFAVYYCTRYDGSRAMDYWGQGTTVTVSS VL: DIELTQSPASLAVSLGQRAIISCKASQSVSFAGTSLMHWYHQKPGQQPKLLIYRASNLEAGVPTRFSGSGSKTDFTLNIHPVEEEDAATYYCQQSREYPYTFGGGTKLEIK | could not observe any specific binding | + (+means binding) | + (+means binding) | − |  | 
2 | 36F2: anti-FolR1 clone from generic multi-framework Fab library (Vk_3_20/VH_1_46) (antibody, V domains shown) VH: QVQLVQSGAEVKKPGASVKVSCKASGYTFTSYYMHWVRQAPGQGLEWMGIINPSGGSTSYAQKFQGRVTMTHDTSTSTVYMELSSLRSEDTAVYYCARSFFTGFHLDYWGQGTLVTVSS VL: EIVLTQSPGTLSLSPGERATLSCRASQSVSSSYLAWYQQKPGQAPRLLIYGASSRATGIPDRFSGSGSGTDFTLTISRLEPEDFAVYYCQQYTNEHYYTFGQGTKVEIK |  | + (+means binding) | + (+means binding) | − | bind comparably well human and cyno FoLR1 | dissociated rapidly from huFolR1
